This note sets out measurements from the RNAGym collection of RNA variant scans (doi:10.7554/elife.80360).

To fix the notation:
B1: HDV Ribozyme (parent)
chain: GGCCGGCAUGGUCCCAGCCUCCUCGCUGGCGCCGGCUGGGCAACAUUCCGAGGGGACCGUCCCCUCGGUAAUGGCGAAUGGGACCCA

The data set covers variants of B1. Put plainly: self-cleavage, relative activity (ratio to wild type); higher = more cleavage; co-transcriptional.
In the case of G34C U72C, the self-cleavage is 0.19.
The same measure for C57U A87C: 1.17; for G10A A43G: 0.217; for C32A C36A: 0.
As for G5U U65C, the self-cleavage worked out at 0.723.
The same measure for C49G C64A: 0.375.
The same measure for C48G C64G: 0.266; for G1A G50C: 0.302; for G39U A77G: 0.564.
In the case of G34C G54U, the self-cleavage stood at 0.123.
The same measure for A42G C44U: 0.639; for U60A U72A: 0.739; for G2U G82C: 0.112.
The same measure for U27A C63A: 0.95.
In the case of G80A C86G, the self-cleavage turned out to be 0.362.
With C33U G80A the figure was 0.12; with C4A A8C, 0.
The same measure for G59C A70G: 1.06; for C15A A77G: 0.485.
The same measure for C33A A51U: 0.373.
G10A C75G: the self-cleavage came out at 0.086.
With G2C U37A the figure was 0.0583.
With C4U G11U the figure was 0.219; with A70G C85A, 1.07; with U9A C86U, 1.09.
With G1U G67C the figure was 0.305.
Consider G67C U72C, for which the self-cleavage stood at 0.147.
With G67C U72A the figure was 0.682; with G1C C22U, 0.148; with C7U C41G, 0.225.
With C14A G67C the figure was 0.554; with C24A G55A, 0.684; with G6U U79G, 0.185.
With C26G G35C the figure was 0.131; with U47G C49G, 0.87; with C58U G73C, 0.608.
On to G39C G81A, for which the self-cleavage is 0.185.
With G11U U47G the figure was 0.246; with G10A C57U, 0.797; with A43C G67C, 0.243.
The same measure for G6A G40U: 0.911.
In the case of G17U C58G, the self-cleavage turned out to be 0.277.
With G25C U47A the figure was 0.0639.
The same measure for C62A G81U: 0.266; for G5U C41U: 0.415; for A8C A77C: 0.317.
On to C66U A77U, for which the self-cleavage was 0.501.
The same measure for G74U C75G: 0.13; for A16C G82U: 0.201.
Regarding G25A C32A, the self-cleavage turned out to be 0.0848.
With U27C G31U the figure was 0.161.
In the case of G67A A71G, the self-cleavage came to 1.05.
The same measure for G68U C85G: 1.07; for C18G U37C: 0.256.
Turning to G50U U69C, the self-cleavage was determined as 0.962.
For the variant C64A G67U, the self-cleavage is 0.425.
With G40C C48U the figure was 0.326; with C41A A77U, 0.332; with G73A G81C, 0.425.
With C62U G68U the figure was 0.68; with U9C G38U, 0.486.
The same measure for G40C U79C: 0.0509; for G6U C41U: 0.259; for G25A U47A: 0.0831.
For the variant G31C G82C, the self-cleavage was 0.134.
G1C G31U: the self-cleavage is 0.0791.
For U12A C86G, the self-cleavage is 0.32.
The same measure for U37C A83U: 0.534; for G11A C15U: 0.479; for C36U G39A: 0.
Take G59C G73U: the self-cleavage came out at 0.379.
With C7G U72C the figure was 0; with A16U G31C, 0.0437.
The same measure for G1A U27G: 0.
The same measure for G25C C84U: 0.0314; for U20C U79C: 0.0845.
With C41U G52U, the self-cleavage was 0.868.
With C13G C58A the figure was 0.
On to G17U C62G, for which the self-cleavage amounted to 0.492.
With G54C A56G the figure was 0.808.
With C18G C85A the figure was 0.0554; with C58G U60G, 0.532; with G11C G82A, 0.262.
Take C3A C15U: the self-cleavage came out at 0.371.
With A8C C21G the figure was 0.0594; with G35A G53A, 0.411; with G54A U72C, 0.61.
Consider C22A G40A, for which the self-cleavage was found to be 0.367.
The same measure for C26U G38C: 0.155; for G40A U72A: 0.446; for G28A G80C: 0.0396.
With C14G G73A the figure was 0.222.
Regarding C58G G76C, the self-cleavage amounted to 0.914.
The same measure for U20A C21A: 0.0536; for C26U A77G: 0.872; for C7G C44A: 0.
The same measure for G31U C36U: 0.0702; for C7G C62A: 0.
With G29C C58U the figure was 0.104; with C19U A70G, 0.141.
For U9C G73A, the self-cleavage is 0.675.
As to G73A A77U, the self-cleavage is 0.189.
The same measure for U46C G76U: 1.23; for U20G C36A: 0.
With C63U G81U the figure was 0.361; with G55A U79C, 0.511; with U20C C24G, 0.115.
The same measure for A77G U79A: 0.554; for C33U C44A: 0.499.
For the variant C21G G35A, the self-cleavage is 0.0817.
With G39C C44U, the self-cleavage came to 0.0707.
The same measure for C14A U20C: 0.111; for C26U C66A: 1.09.
The same measure for C18G C58U: 0.0978.
With C7G G50C, the self-cleavage was found to be 0.138.
With G67U C85A the figure was 0.831; with U46A C84G, 0.68; with G38U G39C, 0.
Turning to G17A G67A, the self-cleavage came to 0.501.
The same measure for G28A G74U: 0.0432.
The same measure for C48U C86A: 0.985; for C15A C75U: 0.141; for G5U G73U: 0.122.
With U12G G35A the figure was 0.19; with G34C C62G, 0.0639; with C13A U20A, 0.0811.
Consider C18U C32U, for which the self-cleavage was found to be 0.327.
The same measure for C15U G54U: 0.901; for G17C G52A: 0.415.
The same measure for G10U C64A: 0.513; for G38C G82C: 0.222; for C3U A42C: 0.181.
With A51C C62G the figure was 0.151; with U12G C64G, 0.492.
For C66A G80C, the self-cleavage turned out to be 0.0845.
With C41U C63A the figure was 0.983.
The same measure for G25A C33A: 0.0863; for G6U G80U: 0.0838.
The same measure for C62U A70G: 1.09.
For U9C G40U, the self-cleavage was 0.449.
With C32G U79A the figure was 0.19; with A51U G81C, 0.407; with G25C U37A, 0.0426.
The same measure for G17U A70U: 0.574.
The same measure for G50U G82U: 0.633; for C33U G53U: 0.916; for C44A A51U: 1.13.
As for C33A G81U, the self-cleavage was determined as 0.0978.
The same measure for C32G C49G: 0.135; for G11U A16U: 0.673; for C14G C32G: 0.
For the variant U79A A83U, the self-cleavage stood at 0.256.
With U27C U72A the figure was 0.396.
On to C3A G31C, for which the self-cleavage is 0.0166.
The same measure for G5U G59U: 0.633; for C75U A87G: 0.0917; for G40A G52C: 0.986.
The same measure for U20C G54C: 0.0475; for U9A C18A: 0.107.
The same measure for A78G A87G: 0.658; for U47G C64U: 1.28.
In the case of G28C C66U, the self-cleavage came to 0.
With C64G C84U the figure was 0.831; with G59C G80C, 0.222.
Take A78C U79A: the self-cleavage was found to be 0.0978.
With C15U G34A the figure was 0.173; with U47C A77G, 0.612.
